# Values of other authors, collected in PMC2663012.
# Target: PKR (Homo sapiens) (UniProt P19525)
# Assay: analytical ultracentrifugation
substance,measurement,value
PKR (from UniProt P19525),Kd,450 µM
